Experimental findings from patent US20250355002A1 are described below.

The test addresses recombinant cryptic HDGFL2 with C-terminal glycine serine linker and 6-HisTag (human) (UniProt Q7Z4V5). Put plainly: MSD sandwich ELISA on HeLa overexpression lysates; mouse IgG isotype control in place of the capture antibody.
UniProt Q7Z4V5, sequence (Q7Z4V5 other isoform, or with tags, fused parts or gaps limits assumed): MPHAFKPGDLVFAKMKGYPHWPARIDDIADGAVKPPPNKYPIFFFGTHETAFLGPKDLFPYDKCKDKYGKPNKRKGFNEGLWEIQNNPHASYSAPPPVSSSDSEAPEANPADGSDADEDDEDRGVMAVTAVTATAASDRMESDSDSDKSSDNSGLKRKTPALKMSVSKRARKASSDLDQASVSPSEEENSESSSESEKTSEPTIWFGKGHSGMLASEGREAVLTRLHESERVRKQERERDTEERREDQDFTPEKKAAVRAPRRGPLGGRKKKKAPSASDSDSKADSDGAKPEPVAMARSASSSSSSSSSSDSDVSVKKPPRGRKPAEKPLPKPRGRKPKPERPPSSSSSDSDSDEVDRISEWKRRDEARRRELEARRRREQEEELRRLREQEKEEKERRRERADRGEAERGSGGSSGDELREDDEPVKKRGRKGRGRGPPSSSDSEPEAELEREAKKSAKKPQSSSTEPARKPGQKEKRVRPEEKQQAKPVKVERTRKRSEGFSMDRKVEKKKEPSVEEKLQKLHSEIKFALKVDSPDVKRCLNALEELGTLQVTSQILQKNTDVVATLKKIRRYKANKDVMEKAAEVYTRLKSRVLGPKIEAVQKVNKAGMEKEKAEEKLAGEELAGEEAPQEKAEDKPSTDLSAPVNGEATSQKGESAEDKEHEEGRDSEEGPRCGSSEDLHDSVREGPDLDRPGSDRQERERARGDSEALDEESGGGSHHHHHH

Consider “mouse IgG isotype control (for the capture antibody)”, for which the ratio of cryptic/WT HDGFL2 lysate MSD signal worked out at 1.
